# Test results as given in article PMC3160285, “Fukutin-Related Protein Resides in the Golgi Cisternae of Skeletal Muscle Fibres and Forms Disulfide-Linked Homodimers via an N-Terminal Interaction” (PLoS ONE, 2011).
# Where a chain is given by its changes, count along the chain named. Names and notes keep the numbering of the source.
# B1: FKRP-282 (C-terminal truncation mutant of FKRP) (domain or fragment, human, UniProt Q9H9S5 1-282, looked up)
# chain: MRLTRCQAALAAAITLNLLVLFYVSWLQHQPRNSRARGPRRASAAGPRVTVLVREFEAFDNAVPELVDSFLQQDPAQPVVVAADTLPYPPLALPRIPNVRLALLQPALDRPAAASRPETYVATEFVALVPDGARAEAPGLLERMVEALRAGSARLVAAPVATANPARCLALNVSLREWTARYGAAPAAPRCDALDGDAVVLLRARDLFNLSAPLARPVGTSLFLQTALRGWAVQLLDLTFAAARQPPLATAHARWKAEREGRARRAALLRALGIRLVSWEGG
# notes: fukutin-related protein (FKRP), human; C-terminal truncation, last amino acid 282; source: COS-7, transfected, in lysate (5 mM NEM)
# B2: FKRP-157 (C-terminal truncation mutant of FKRP) (domain or fragment, human, UniProt Q9H9S5 1-157, looked up)
# chain: MRLTRCQAALAAAITLNLLVLFYVSWLQHQPRNSRARGPRRASAAGPRVTVLVREFEAFDNAVPELVDSFLQQDPAQPVVVAADTLPYPPLALPRIPNVRLALLQPALDRPAAASRPETYVATEFVALVPDGARAEAPGLLERMVEALRAGSARLVA
# notes: fukutin-related protein (FKRP), human; source: COS-7, transfected, in lysate (5 mM NEM)
# B3: FKRP Cys168Ser (natural protein, human, UniProt Q9H9S5 1-495, looked up)
# chain: MRLTRCQAALAAAITLNLLVLFYVSWLQHQPRNSRARGPRRASAAGPRVTVLVREFEAFDNAVPELVDSFLQQDPAQPVVVAADTLPYPPLALPRIPNVRLALLQPALDRPAAASRPETYVATEFVALVPDGARAEAPGLLERMVEALRAGSARLVAAPVATANPARSLALNVSLREWTARYGAAPAAPRCDALDGDAVVLLRARDLFNLSAPLARPVGTSLFLQTALRGWAVQLLDLTFAAARQPPLATAHARWKAEREGRARRAALLRALGIRLVSWEGGRLEWFGCNKETTRCFGTVVGDTPAYLYEERWTPPCCLRALRETARYVVGVLEAAGVRYWLEGGSLLGAARHGDIIPWDYDVDLGIYLEDVGNCEQLRGAEAGSVVDERGFVWEKAVEGDFFRVQYSESNHLHVDLWPFYPRNGVMTKDTWLDHRQDVEFPEHFLQPLVPLPFAGFVAQAPNNYRRFLELKFGPGVIENPQYPNPALLSLTGSG
# notes: fukutin-related protein (FKRP), human, 495 aa, made from pcDNA3.1-FKRP by site-directed mutagenesis; also called FKRP-C168S; source: COS-7, transfected, in lysate (5 mM NEM)
# B4: FKRP-Cys289Ser (natural protein, human, UniProt Q9H9S5 1-495, looked up)
# chain: B3 chain with S168C, C289S
# notes: fukutin-related protein (FKRP), human, 495 aa, made from pcDNA3.1-FKRP by site-directed mutagenesis; also called FKRP-C289S; source: COS-7, transfected, in lysate (5 mM NEM)
# B5: FKRP-Asn209Gln (natural protein, human, UniProt Q9H9S5 1-495, looked up)
# chain: B3 chain with S168C, N209Q
# notes: fukutin-related protein (FKRP), human, 495 aa, made from pcDNA3.1-FKRP by site-directed mutagenesis; source: COS-7, transfected, in lysate (5 mM NEM)
# B6: FKRP-Asn172Gln/Asn209Gln (natural protein, human, UniProt Q9H9S5 1-495, looked up)
# chain: B3 chain with S168C, N172Q, N209Q
# notes: fukutin-related protein (FKRP), human, 495 aa, made from pcDNA3.1-FKRP by site-directed mutagenesis; also called double mutant; source: COS-7, transfected, in lysate (5 mM NEM)
# B7: FKRP-Asn172Gln (natural protein, human, UniProt Q9H9S5 1-495, looked up)
# chain: B3 chain with S168C, N172Q
# notes: as for B5
# B8: Fukutin-related protein (FKRP), human, wild type, untagged (pcDNA3.1-FKRP) (natural protein, UniProt Q9H9S5 1-495, looked up)
# chain: B3 chain with S168C
# modifications: N-linked glycans of high mannose and/or hybrid type at Asn172 and Asn209
# notes: fukutin-related protein (FKRP), human, 495 aa; Same construct expressed in two cell lines; the assay's format names the cell line; also called hFKRP; full length FKRP; source: COS-7 or BHK-21, transfected (pcDNA3.1-FKRP), in lysate
# B9: FKRP Cys375Ser (natural protein, human, UniProt Q9H9S5 1-495, looked up)
# chain: B3 chain with S168C, C375S
# notes: fukutin-related protein (FKRP), human, 495 aa, made from pcDNA3.1-FKRP by site-directed mutagenesis; also called FKRP-C375S; source: COS-7, transfected, in lysate (5 mM NEM)
# B10: FKRP Cys191Ser (natural protein, human, UniProt Q9H9S5 1-495, looked up)
# chain: B3 chain with S168C, C191S
# notes: fukutin-related protein (FKRP), human, 495 aa, made from pcDNA3.1-FKRP by site-directed mutagenesis; also called FKRP-C191S; source: COS-7, transfected, in lysate (5 mM NEM)
# B11: FKRP Cys296Ser (natural protein, human, UniProt Q9H9S5 1-495, looked up)
# chain: B3 chain with S168C, C296S
# notes: fukutin-related protein (FKRP), human, 495 aa, made from pcDNA3.1-FKRP by site-directed mutagenesis; also called FKRP-C296S; source: COS-7, transfected, in lysate (5 mM NEM)
# B12: FKRP-373 (C-terminal truncation mutant of FKRP) (domain or fragment, human, UniProt Q9H9S5 1-373, looked up)
# chain: MRLTRCQAALAAAITLNLLVLFYVSWLQHQPRNSRARGPRRASAAGPRVTVLVREFEAFDNAVPELVDSFLQQDPAQPVVVAADTLPYPPLALPRIPNVRLALLQPALDRPAAASRPETYVATEFVALVPDGARAEAPGLLERMVEALRAGSARLVAAPVATANPARCLALNVSLREWTARYGAAPAAPRCDALDGDAVVLLRARDLFNLSAPLARPVGTSLFLQTALRGWAVQLLDLTFAAARQPPLATAHARWKAEREGRARRAALLRALGIRLVSWEGGRLEWFGCNKETTRCFGTVVGDTPAYLYEERWTPPCCLRALRETARYVVGVLEAAGVRYWLEGGSLLGAARHGDIIPWDYDVDLGIYLEDVG
# notes: fukutin-related protein (FKRP), human; C-terminal truncation, last amino acid 373; source: COS-7, transfected, in lysate (5 mM NEM)
# Target: FKRP Cys317Ser/Cys318Ser (human) (UniProt Q9H9S5)
# Test: SDS-PAGE (non-reducing and reducing) with Western blot; cleared COS-7 lysates prepared with 5 mM NEM; untreated or reduced with 330-400 mM DTT at RT for 30 min; 4-12% gel; detection with FKRP207 antibody
row,Molecule,stoichiometry N
1,FKRP Cys317Ser/Cys318Ser (from UniProt Q9H9S5 1-495) (natural protein),2

# Target: the molecule itself
# Test: as above
row,Molecule,stoichiometry N
1,B1,2
2,B2,2
3,B3,2
4,B4,2
5,B5,2
6,B6,2
7,B7,2
8,B8,2
9,B9,2
10,B10,2
11,B11,2
12,B12,2
